Columns and labels:
[1] = test system: amyloid-beta (A-beta); test: Competition of a RAGE ligand with immobilized amyloid-beta for binding to the fusion protein; conditions: TTP-4000 initial solution diluted 1:10 or 1:30; RAGE ligand 10 μM FAC
Method: The fusion protein of the present invention may also be used to identify compounds having the ability to bind to RAGE.
Known RAGE ligands were coated onto the surface of Maxisorb plates at a concentration of 5 micrograms per well. Plates were incubated at 4° C. overnight. Following ligand incubation, plates were aspirated and a blocking buffer of 1% BSA in 50 mM imidizole buffer (pH 7.2) was added to the plates for 1 hour at room temperature. The plates were then aspirated and/or washed with wash buffer (20 mM Imidizole, 150 mM NaCl, 0.05% Tween-20, 5 mM CaCl2 and 5 mM MgCl2, pH 7.2). […] The fusion protein was added at increasing dilutions of the initial sample. The RAGE fusion protein was allowed to incubate with the immobilized ligand at 37° C. for one hour after which the plate was washed and assayed for binding of the fusion protein. Binding was detected by the addition of an immunodetection complex containing a monoclonal mouse anti-human IgG1 diluted 1:11,000 to a final assay concentration (FAC) of 21 ng/100 μL, a biotinylated goat anti-mouse IgG diluted 1:500, to a FAC of […], and an avidin-linked alkaline phosphatase. The complex was incubated with the immobilized fusion protein for one hour at room temperature after which the plate was washed and the alkaline phosphatase substrate para-nitrophenylphosphate (PNPP) was added. […]

[2] = Pharmacokinetic profile of TTP-4000 after IV injection; type: in vivo, monkeys; conditions: single IV bolus 5 mg/kg; plasma; after saturation of ligands; FIG. 11
Method: Following collection, the tubes were placed on wet ice (maximum 30 minutes) until centrifugation under refrigeration (at 2 to 8° C.) at 1500×g for 15 minutes. Each harvested plasma sample was then stored frozen (−70° C.±10° C.) until assayed for RAGE polypeptide using an ELISA at various time-points following the injection, as described in Example 6.
Initially, 50 uL of the RAGE specific monoclonal antibody 1HB1011 at a concentration of 10 ug/mL in 1×PBS pH 7.3 is coated on plates via overnight incubation. When ready for use, plates are washed three times with 300 uL of 1× Imidazole-Tween wash buffer and blocked with 1% BSA. […] The samples are allowed to incubate at room temperature for one hour. After incubation, the plates are plates are washed three times. A Goat Anti-human IgG1 1 (Sigma A33 12) AP conjugate in 1×PBS with 1% BSA is added and allowed to incubate at room temperature for 1 hour. The plates are washed three times. Color was elucidated with paranitrophenylphosphate.

[3] = test system: RAGE (S100b-stimulated THP-1 cells); test: S100b/RAGE-induced production of TNF-α in THP-1 cells; type: cell-based; conditions: 10 μg protein, FIG. 10
Method: THP-1 myeloid cells may be cultured in RPMI-1640 media supplemented with 10% FBS and induced to secrete TNF-α via stimulation of RAGE with S100b. When such stimulation occurs in the presence of a RAGE fusion protein, induction of TNF-α, by S100b binding to RAGE may be inhibited.
Previous work has shown that the myeloid THP-1 cells may secrete TNF-α in response to RAGE ligands. In this assay, THP-1 cells were cultured in RPMI-1640 media supplemented with 10% FBS using a protocol provided by ATCC. […] The amount of TNF-α secreted by the THP-1 cells was measured 24 hours after the addition of the proteins to the cell culture using a commercially available ELISA kit for TNF-α (R&D Systems, Minneapolis, Minn.).

B1: TTP-4000: four domain RAGE fusion protein (SEQ ID NO: 32): human RAGE amino acids 1-251 linked to CH2 and CH3 domains of human IgG (protein)
chain: MAAGTAVGAWALVLSLWGAVVGAQNITARIGEPLVLKCKGAPKKPPQRLEWKLNTGRTEAWKVLSPQGGGPWDSVARVLPNGSLFLPAVGIQDEGIFRCQAMNRNGKETKSNYRVRVYQIPGKPEIVDSASELTAGVPNKVGTCVSEGSYPAGTLSWHLDGKPLVPNEKGVSVKEQTRRHPETGLFTLQSELMVTPARGGDPRPTFSCSFSPGLPRHRALRTAPIQPRVWEPVPLEEVQLVVEPEGGAVAPPSVFLFPPKPKDTLMISRTPEVTCVVVDVSHEDPEVKFNWYVDGVEVHNAKTKPREEQYNSTYRVVSVLTVLHQDWLNGKEYKCKVSNKALPAPIEKTISKAKGQPREPQVYTLPPSRDELTKNQVSLTCLVKGFYPSDIAVEWESNGQPENNYKTTPPVLDSDGSFFLYSKLTVDKSRWQQGNVFSCSVMHEALHNHYTQKSLSLSPGK
inhibition of binding of TTP-4000 to immobilized amyloid-beta by the RAGE ligand [1]: completely inhibited | terminal half-life [2]: greater than 300 hours | reduction of S100b induction of TNF-α ([3]; S100b 0.1 mg/ml FAC, 24 hours): ~70% | effect on S100b induction of TNF-α (in words) ([3]; S100b 0.1 mg/ml): at least as effective in blocking S100b induction of TNF-α as is sRAGE
